These results are taken from US20240117030A1 (Pfizer, published 2024).

What all share (assay): cell-based or functional assay
Assay [1] deals with recombinant human TSLP (glycosylated long form) (human, UniProt Q969D9 29-159).
Assay [2] has as its target T1, recombinant human IL-4 (human, UniProt P05112 25-153).
T1 sequence (looked up): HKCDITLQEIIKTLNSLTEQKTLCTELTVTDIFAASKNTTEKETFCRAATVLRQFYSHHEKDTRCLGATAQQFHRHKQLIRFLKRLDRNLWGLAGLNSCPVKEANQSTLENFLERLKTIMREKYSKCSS

Assay [3] addresses recombinant human IL-13 (human, UniProt P35225 35-146).

Chain of recombinant human IL-13 (P35225 35-146 limits assumed): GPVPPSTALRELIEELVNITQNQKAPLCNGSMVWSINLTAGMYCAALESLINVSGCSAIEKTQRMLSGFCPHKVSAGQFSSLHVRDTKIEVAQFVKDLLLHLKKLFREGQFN

B1: IL413TSLP-0001 (other)
heavy: EVTLRESGPALVKPTQTLTLTCTFSGFSLSNFGEGLSWIRQPPGKGLEWLAHIYWDDDKRYNPSLKSRLTISKDTSRNQVVLTMTNMDPVDTATYYCARRETVFYWYFDVWGQGTTVTVSSASTKGPSVFPEAPSSKSTSGGTAALGCLVKDYFPEPVTVSWNSGALTSGVHTFPAVLQSSGLYSLGSVVTVPSSSLGTQTYICNVNHKPSNTKVDKKVEPKSCDKTHTCPPCPAPEAAGAPSVFLFPPKPKDTLMISRTPEVTCVVVDVSHEDPEVKFNWYVDGVEVHNAKTKPREEQYNSTYRVVSVLTVLHQDWLNGKEYKCKVSNKALPAPIEKTISKAKGQPREPQVYTLPPCREEMTKNQVSLSCAVKGFYPSDIAVEWESNGQPENNYKTTPPVLDSDGSFFLVSKLTVDKSRWQQGNVFSCSVMHEALHNHYTQKSLSLSPGK
chain 1: QMQLVESGGGVVQPGRSLRLSCAASGFTFRTYGMHWVRQAPGKGLEWVAVIWYDGSNKHYADSVKGRFTITRDNSKNTLNLQMNSLRAEDTAVYYCARAPQWELVHEAFDIWGQGTMVTVSSGQPKAAPSVTLFPPSSEELQANKATLVCLISDFYPGAVTVAWKADSSPVKAGVETTTPSKQSNNKYAASSYLSLTPEQWKSHRSYSCQVTHEGSTVEKTVAPTECSGGGGSEVQLVESGGGLVQPGGSLRLSCAASGFTFSSYAMSWVRQAPGKGLEWVASISSGDTTYYPDSVKGRFTISRDNAKNSLYLQMNSLRAEDTAVYYCARNEGYYFGLTLWGQGTLVTVSSASTKGPSVFPKAPSSKSTSGGTAALGCLVKDYFPEPVTVSWNSGALTSGVHTFPAVLQSSGLYSLSSSVTVPSSSLGTQTYICNVNHKPSNTKVDKKVEPKSCDKTHTCPPCPAPEAAGAPSVFLFPPKPKDTLMISRTPEVTCVVVDVSHEDPEVKFNWYVDGVEVHNAKTKPREEQYNSTYRVVSVLTVLHQDWLNGKEYKCKVSNKALPAPIEKTISKAKGQPREPQVCTLPPSREEMTKNQVSLWCLVKGFYPSDIAVEWESNGQPENNYKTTPPVLDSDGSFFLYSKLTVDKSRWQQGNVFSCSVMHEALHNHYTQKSLSLSPGK
light 1: DIQMTQSPSSLSASVGDRVTITCKASQSVDEDGDSYMNWYQQKPGKAPKLLIYAASNLESGVPSRFSGSGSGTDFTLTISSLQPEDFATYYCQQSNEDPPTFGGGTKVEIKRTVAAPSVFIFPPSDEQLKSGTASVSCLLNNFYPREAKVQWKVDNALQSGNSQESVTEQDSKDSTYSLKSTLTLSKADYEKHKVYACEVTHQGLSSPVTKSFNRGEC
light 2: DIQMTQSPSSLSASVGDRVTITCKASESVDHFGWSLVHWYQQKPGKAPKLLIYRASNLESGVPSRFSGSGSGTDFTLTISSLQPEDFATYYCQQSNEDPWTFGGGTKVEIKRTVAAPSVFIFPPSDEQLKSGTASVSCLLNNFYPREAKVQWKVDNALQSGNSQESVTEQDSKDSTYSLDSTLTLSKADYEKHKVYACEVTHQGLSSPVTKSFNRGEC
chain 2: SYVLTQPPSVSVAPGQTARITCGGNNLGSKSVHWYQQKPGQAPVLVVYDDSDRPSWIPERFSGSNSGNTATLTISRGEAGDEADYYCQVWDSSSDHVVFGGGTKLTVLASTKGPSVFPLAPSSKSTSGGTAALGCLVKDYFPEPVTVSWNSGALTSGVHTFPAVLQSSGLYSLSSVVTVPSSSLGTQTYICNVNHKPSNTKVDKKVEPKSC
Consider B1, for which, in assay [1], the “a-TSLP TARC bioassay (IC50; pM)” value came to 12.6 pM. Further, the “a-hIL-4 bioassay IC50, pM)” value in assay [2] stood at 7.15 pM. Also, the “a-hIL-13 bioassay (IC50, pM)” value in assay [3] amounted to 47 pM.

B2: IL413TSLP-0007 (other)
heavy: EVTLRESGPALVKPTQTLTLTCTFSGFSLSNFGEGLSWIRQPPGKGLEWLAHIYWDDDKRYNPSLKSRLTISKDTSRNQVVLTMTNMDPVDTATYYCARRETVFYWYFDVWGQGTTVTVSSASTKGPSVFPEAPSSKSTSGGTAALGCLVKDYFPEPVTVSWNSGALTSGVHTFPAVLQSSGLYSLGSVVTVPSSSLGTQTYICNVNHKPSNTKVDKKVEPKSCDKTHTCPPCPAPEAAGAPSVFLFPPKPKDTLMISRTPEVTCVVVDVSHEDPEVKFNWYVDGVEVHNAKTKPREEQYNSTYRVVSVLTVLHQDWLNGKEYKCKVSNKALPAPIEKTISKAKGQPREPQVYTLPPCREEMTKNQVSLSCAVKGFYPSDIAVEWESNGQPENNYKTTPPVLDSDGSFFLVSKLTVDKSRWQQGNVFSCSVMHEALHNHYTQKSLSLSPGK
chain 1: SYVLTQPPSVSVAPGQTARITCGGNNLGSKSVHWYQQKPGQAPVLVVYDDSDRPSWIPERFSGSNSGNTATLTISRGEAGDEADYYCQVWDSSSDHVVFGGGTKLTVLASTKGPSVFPLAPSSKSTSGGTAALGCLVKDYFPEPVTVSWNSGALTSGVHTFPAVLQSSGLYSLSSVVTVPSSSLGTQTYICNVNHKPSNTKVDKKVEPKSCGGGGSEVQLVESGGGLVQPGGSLRLSCAASGFTFSSYAMSWVRQAPGKGLEWVASISSGDTTYYPDSVKGRFTISRDNAKNSLYLQMNSLRAEDTAVYYCARNEGYYFGLTLWGQGTLVTVSSASTKGPSVFPKAPSSKSTSGGTAALGCLVKDYFPEPVTVSWNSGALTSGVHTFPAVLQSSGLYSLSSSVTVPSSSLGTQTYICNVNHKPSNTKVDKKVEPKSCDKTHTCPPCPAPEAAGAPSVFLFPPKPKDTLMISRTPEVTCVVVDVSHEDPEVKFNWYVDGVEVHNAKTKPREEQYNSTYRVVSVLTVLHQDWLNGKEYKCKVSNKALPAPIEKTISKAKGQPREPQVCTLPPSREEMTKNQVSLWCLVKGFYPSDIAVEWESNGQPENNYKTTPPVLDSDGSFFLYSKLTVDKSRWQQGNVFSCSVMHEALHNHYTQKSLSLSPGK
light 1: DIQMTQSPSSLSASVGDRVTITCKASQSVDEDGDSYMNWYQQKPGKAPKLLIYAASNLESGVPSRFSGSGSGTDFTLTISSLQPEDFATYYCQQSNEDPPTFGGGTKVEIKRTVAAPSVFIFPPSDEQLKSGTASVSCLLNNFYPREAKVQWKVDNALQSGNSQESVTEQDSKDSTYSLKSTLTLSKADYEKHKVYACEVTHQGLSSPVTKSFNRGEC
light 2: DIQMTQSPSSLSASVGDRVTITCKASESVDHFGWSLVHWYQQKPGKAPKLLIYRASNLESGVPSRFSGSGSGTDFTLTISSLQPEDFATYYCQQSNEDPWTFGGGTKVEIKRTVAAPSVFIFPPSDEQLKSGTASVSCLLNNFYPREAKVQWKVDNALQSGNSQESVTEQDSKDSTYSLDSTLTLSKADYEKHKVYACEVTHQGLSSPVTKSFNRGEC
chain 2: QMQLVESGGGVVQPGRSLRLSCAASGFTFRTYGMHWVRQAPGKGLEWVAVIWYDGSNKHYADSVKGRFTITRDNSKNTLNLQMNSLRAEDTAVYYCARAPQWELVHEAFDIWGQGTMVTVSSGQPKAAPSVTLFPPSSEELQANKATLVCLISDFYPGAVTVAWKADSSPVKAGVETTTPSKQSNNKYAASSYLSLTPEQWKSHRSYSCQVTHEGSTVEKTVAPTECS
Regarding B2, in assay [1], the “a-TSLP TARC bioassay (IC50; pM)” value was 11.7 pM. Besides, the “a-hIL-4 bioassay IC50, pM)” value in assay [2] is 7.09 pM. In addition, the “a-hIL-13 bioassay (IC50, pM)” value in assay [3] was determined as 46.8 pM.

B3: IL413TSLP-0002 (other)
heavy: EVQLVESGGGLVQPGGSLRLSCAASGFTFSSYAMSWVRQAPGKGLEWVASISSGDTTYYPDSVKGRFTISRDNAKNSLYLQMNSLRAEDTAVYYCARNEGYYFGLTLWGQGTLVTVSSASTKGPSVFPKAPSSKSTSGGTAALGCLVKDYFPEPVTVSWNSGALTSGVHTFPAVLQSSGLYSLSSSVTVPSSSLGTQTYICNVNHKPSNTKVDKKVEPKSCDKTHTCPPCPAPEAAGAPSVFLFPPKPKDTLMISRTPEVTCVVVDVSHEDPEVKFNWYVDGVEVHNAKTKPREEQYNSTYRVVSVLTVLHQDWLNGKEYKCKVSNKALPAPIEKTISKAKGQPREPQVCTLPPSREEMTKNQVSLWCLVKGFYPSDIAVEWESNGQPENNYKTTPPVLDSDGSFFLYSKLTVDKSRWQQGNVFSCSVMHEALHNHYTQKSLSLSPGK
chain 1: QMQLVESGGGVVQPGRSLRLSCAASGFTFRTYGMHWVRQAPGKGLEWVAVIWYDGSNKHYADSVKGRFTITRDNSKNTLNLQMNSLRAEDTAVYYCARAPQWELVHEAFDIWGQGTMVTVSSGQPKAAPSVTLFPPSSEELQANKATLVCLISDFYPGAVTVAWKADSSPVKAGVETTTPSKQSNNKYAASSYLSLTPEQWKSHRSYSCQVTHEGSTVEKTVAPTECSGGGGSEVTLRESGPALVKPTQTLTLTCTFSGFSLSNFGEGLSWIRQPPGKGLEWLAHIYWDDDKRYNPSLKSRLTISKDTSRNQVVLTMTNMDPVDTATYYCARRETVFYWYFDVWGQGTTVTVSSASTKGPSVFPEAPSSKSTSGGTAALGCLVKDYFPEPVTVSWNSGALTSGVHTFPAVLQSSGLYSLGSVVTVPSSSLGTQTYICNVNHKPSNTKVDKKVEPKSCDKTHTCPPCPAPEAAGAPSVFLFPPKPKDTLMISRTPEVTCVVVDVSHEDPEVKFNWYVDGVEVHNAKTKPREEQYNSTYRVVSVLTVLHQDWLNGKEYKCKVSNKALPAPIEKTISKAKGQPREPQVYTLPPCREEMTKNQVSLSCAVKGFYPSDIAVEWESNGQPENNYKTTPPVLDSDGSFFLVSKLTVDKSRWQQGNVFSCSVMHEALHNHYTQKSLSLSPGK
light 1: DIQMTQSPSSLSASVGDRVTITCKASESVDHFGWSLVHWYQQKPGKAPKLLIYRASNLESGVPSRFSGSGSGTDFTLTISSLQPEDFATYYCQQSNEDPWTFGGGTKVEIKRTVAAPSVFIFPPSDEQLKSGTASVSCLLNNFYPREAKVQWKVDNALQSGNSQESVTEQDSKDSTYSLDSTLTLSKADYEKHKVYACEVTHQGLSSPVTKSFNRGEC
light 2: DIQMTQSPSSLSASVGDRVTITCKASQSVDEDGDSYMNWYQQKPGKAPKLLIYAASNLESGVPSRFSGSGSGTDFTLTISSLQPEDFATYYCQQSNEDPPTFGGGTKVEIKRTVAAPSVFIFPPSDEQLKSGTASVSCLLNNFYPREAKVQWKVDNALQSGNSQESVTEQDSKDSTYSLKSTLTLSKADYEKHKVYACEVTHQGLSSPVTKSFNRGEC
chain 2: SYVLTQPPSVSVAPGQTARITCGGNNLGSKSVHWYQQKPGQAPVLVVYDDSDRPSWIPERFSGSNSGNTATLTISRGEAGDEADYYCQVWDSSSDHVVFGGGTKLTVLASTKGPSVFPLAPSSKSTSGGTAALGCLVKDYFPEPVTVSWNSGALTSGVHTFPAVLQSSGLYSLSSVVTVPSSSLGTQTYICNVNHKPSNTKVDKKVEPKSC
As to B3, the “a-TSLP TARC bioassay (IC50; pM)” value in assay [1] was found to be 16.4 pM. Besides, in assay [2], the “a-hIL-4 bioassay IC50, pM)” value is 8.59 pM. Besides, the “a-hIL-13 bioassay (IC50, pM)” value in assay [3] was found to be 10.6 pM.
